Values of other authors, collected in article PMC3642679.

Biological target: sliding clamp beta (Escherichia coli) (UniProt P0A988)
UniProt P0A988, sequence (P0A988 whole entry): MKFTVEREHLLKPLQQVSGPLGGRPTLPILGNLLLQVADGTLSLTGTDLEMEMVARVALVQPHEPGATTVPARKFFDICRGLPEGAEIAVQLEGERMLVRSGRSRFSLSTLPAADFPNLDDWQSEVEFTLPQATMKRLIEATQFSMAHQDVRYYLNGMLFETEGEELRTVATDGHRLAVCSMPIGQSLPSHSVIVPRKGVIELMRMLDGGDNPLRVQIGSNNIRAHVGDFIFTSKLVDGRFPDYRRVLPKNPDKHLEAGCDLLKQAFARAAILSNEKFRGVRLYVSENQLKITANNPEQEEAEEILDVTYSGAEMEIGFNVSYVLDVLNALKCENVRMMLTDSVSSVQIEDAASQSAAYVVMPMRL

In the case of Pol III alpha (from UniProt P10443), the Kd is given as 1 µM.
